“And” between values parts separate entries of the source, which are not always exact repeats. Equal entries are not always repeated. No end group written: not given here.
B1: Peptide F: Acetyl-DAVEPYSSTA-amide (peptide)
peptide: Ac-DAVEPYSSTA-NH2
B2: Peptide D: Acetyl-EGMEGM-amide (peptide)
peptide: Ac-EGMEGM-NH2
B3: Peptide B: Acetyl-DRVE-amide (peptide)
peptide: Ac-DRVE-NH2
B4: Peptide A(d): [{Ac-DRVEPYSSTA}2-K]2-K-OH (peptide)
peptide: Ac-DRVEPYSSTA
chain: Lys-OH
modifications: also: four copies of chain 1 on a branched core of three lysines (two Lys on α- and ε-amines of C-terminal Lys)

target: FGF receptors; assay: cell-based or functional assay

Row | Binder | peptide concentration giving maximal effect in the neurite outgrowth assay
1 | B1 | 100 µg/ml and 100 µM
2 | B2 | 63 µg/ml and 100 µM
3 | B3 | 75 µg/ml and 150 µM
4 | B4 | ~0.4 µM

Reference: patent US20040102370A1 (IMPERIAL INNOVATIONS, published 2004)
